Laboratory results taken from patent US20230381333A1 (HANMI PHARM, published 2023).
Bridge positions count the residues as written; N and C are the ends. Square brackets hold non-standard residues; d marks the D form. Ends that are not written are not given here. * marks the point of attachment. Acetyl(2-(4-imidazolyl)) = O=C(Cc1c[nH]cn1)*; Aib = CC(C)(N)C(=O)O

T1: human GIP receptor (human, UniProt P48546 22-466)
T1 sequence (looked up): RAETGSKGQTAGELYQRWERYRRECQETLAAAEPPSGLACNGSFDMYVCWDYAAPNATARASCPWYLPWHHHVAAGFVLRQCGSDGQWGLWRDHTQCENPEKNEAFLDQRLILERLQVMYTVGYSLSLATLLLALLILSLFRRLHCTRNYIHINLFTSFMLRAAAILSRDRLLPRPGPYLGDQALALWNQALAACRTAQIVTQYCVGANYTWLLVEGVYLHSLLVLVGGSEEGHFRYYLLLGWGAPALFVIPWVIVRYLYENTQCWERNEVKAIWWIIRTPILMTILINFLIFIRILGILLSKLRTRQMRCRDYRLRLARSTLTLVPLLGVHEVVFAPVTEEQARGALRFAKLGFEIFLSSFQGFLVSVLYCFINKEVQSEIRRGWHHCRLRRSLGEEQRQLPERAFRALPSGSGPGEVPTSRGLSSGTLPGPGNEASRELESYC


Columns and labels:
Assay in all cases: cell-based or functional assay
human GCG receptor = human GCG receptor (human, UniProt P47871 26-477)
Sequence of human GCG receptor (P47871 26-477): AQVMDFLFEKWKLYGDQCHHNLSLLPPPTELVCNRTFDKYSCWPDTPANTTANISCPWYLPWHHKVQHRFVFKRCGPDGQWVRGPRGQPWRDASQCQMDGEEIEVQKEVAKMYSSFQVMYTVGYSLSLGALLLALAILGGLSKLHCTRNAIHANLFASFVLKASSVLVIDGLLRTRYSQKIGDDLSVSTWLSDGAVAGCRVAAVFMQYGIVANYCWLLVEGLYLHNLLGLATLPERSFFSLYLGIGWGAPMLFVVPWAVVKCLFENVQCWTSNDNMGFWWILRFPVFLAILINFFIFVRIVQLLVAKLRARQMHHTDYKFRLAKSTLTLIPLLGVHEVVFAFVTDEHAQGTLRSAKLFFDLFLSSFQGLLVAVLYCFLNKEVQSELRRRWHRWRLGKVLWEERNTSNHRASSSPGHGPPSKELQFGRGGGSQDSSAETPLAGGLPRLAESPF

human GLP-1 receptor = human GLP-1 receptor (human, UniProt P43220 24-463)
human GIP receptor = target: T1, human GIP receptor

Row | Binder | In vitro activity compared to native-type peptide (%), vs Glucagon (human GCG receptor) [%] | In vitro activity compared to native-type peptide (%), vs GLP-1 (human GLP-1 receptor) [%] | In vitro activity compared to native-type peptide (%), vs GIP (human GIP receptor) [%]
1 | H[Aib]QGTFTSDYSKYLDEKRQKEFVQWLLDTKC (bridge 16-20) [triple agonist of SEQ ID NO: 78] | 14 | 51 | 0.12
2 | {Acetyl(2-(4-imidazolyl))}-[Aib]QGTFTSDYSIAMDEIHQKDFVNWLLNTC (bridge 15-19) [triple agonist of SEQ ID NO: 87] | < 0.1 | 0.9 | < 0.1
3 | {Acetyl(2-(4-imidazolyl))}-[Aib]EGTFTSDYSIAMDEIHQKDFVDWLLAEC (bridge 15-19) [triple agonist of SEQ ID NO: 84] | < 0.1 | 4.2 | < 0.1
4 | {Acetyl(2-(4-imidazolyl))}-[Aib]QGTFTSDYSKYLDEKRQKEFVQWLLNTC (bridge 15-19) [triple agonist of SEQ ID NO: 81] | 0.3 | 7.8 | < 0.1
5 | H[Aib]EGTFTSDYSIAMDEIHQKDFVNWLLAQKC (bridge 16-20) [triple agonist of SEQ ID NO: 79] | 4.9 | 41.5 | 1.4
6 | Y[Aib]QGTFTSDYSKYLDEKRAKEFVQWLLCHHPSSGQPPPS (bridge 16-20) [triple agonist of SEQ ID NO: 95] | 0.4 | 2.1 | < 0.1
7 | Y[Aib]QGTFTSDYSKYLDEKAAKEFVQWLLDHHPSSGQPPPSC (bridge 16-20) [triple agonist of SEQ ID NO: 75] | 8.5 | 35.1 | 18
8 | H[Aib]QGTFTSDVSKYLDGQAAQEFVAWLLAGC [triple agonist of SEQ ID NO: 9] | 0.13 | 32.1 | < 0.1
9 | {Acetyl(2-(4-imidazolyl))}-[Aib]QGTFTSDYSKYLDEKRQKEFVNWLLAQKC (bridge 15-19) [triple agonist of SEQ ID NO: 93] | 0.3 | 5.7 | 0.7
10 | {Acetyl(2-(4-imidazolyl))}-[Aib]EGTFTSDYSIAMDEIHQKDFVDWLLAEKC (bridge 15-19) [triple agonist of SEQ ID NO: 91] | 16.8 | 31.9 | 0.3
11 | Y[Aib]QGTFTSDYSKYLDEKRAKEFVQWLLDCHPSSGQPPPS (bridge 16-20) [triple agonist of SEQ ID NO: 97] | 62.8 | 10.5 | 2.6
12 | {Acetyl(2-(4-imidazolyl))}-[Aib]QGTFTSDYSKYLDEKRQKEFVQWLLNTKC (bridge 15-19) [triple agonist of SEQ ID NO: 88] | 0.3 | 9.6 | < 0.1
13 | {Acetyl(2-(4-imidazolyl))}-[Aib]QGTFTSDYSIAMDEIHQKDFVNWLLAQKC (bridge 15-19) [triple agonist of SEQ ID NO: 92] | < 0.1 | 0.8 | 0.4
14 | H[Aib]EGTFTSDYSIAMDEIHQKDFVDWLLAEKC (bridge 16-20) [triple agonist of SEQ ID NO: 80] | 0 | 8.1 | 0.1
15 | {Acetyl(2-(4-imidazolyl))}-[Aib]QGTFTSDYSKYLDEKRQKEFVQWLLDTC (bridge 15-19) [triple agonist of SEQ ID NO: 82] | 1.1 | 9.5 | < 0.1
16 | {Acetyl(2-(4-imidazolyl))}-[Aib]QGTFTSDYSIAMDEIHQKDFVNWLLNTKC (bridge 15-19) [triple agonist of SEQ ID NO: 94] | < 0.1 | 0.5 | < 0.1
17 | H[Aib]QGTFTSDVSKYLDGQAAQEFVAWLLAGGGPSSGAPPPSC [triple agonist of SEQ ID NO: 10] | < 0.1 | 46 | < 0.1
18 | {Acetyl(2-(4-imidazolyl))}-[Aib]EGTFTSDYSIAMDEIHQKDFVNWLLAQC (bridge 15-19) [triple agonist of SEQ ID NO: 83] | 1.3 | 47.3 | 0.4
19 | {Acetyl(2-(4-imidazolyl))}-[Aib]QGTFTSDYSIAMDEIHQKDFVNWLLAQC (bridge 15-19) [triple agonist of SEQ ID NO: 85] | < 0.1 | 4.3 | 0.3
20 | Y[Aib]QGTFTSDYSKYLDEKRAKEFVQWLLDHCPSSGQPPPS (bridge 16-20) [triple agonist of SEQ ID NO: 96] | 195 | 34.4 | 5.2
21 | Y[Aib]QGTFTSDYSKYLDEKAAKDFVQWLLDHHPSSGQPPPSC (bridge 16-20) [triple agonist of SEQ ID NO: 77] | 12.2 | 38.7 | 35.5
22 | Y[Aib]QGTFTSDYSKYLDEKRAKDFVQWLLDHHPSSGQPPPSC (bridge 16-20) [triple agonist of SEQ ID NO: 76] | 47.6 | 10.3 | 11.7
23 | {Acetyl(2-(4-imidazolyl))}-[Aib]EGTFTSDYSIAMDEIHQKDFVNWLLAQKC (bridge 15-19) [triple agonist of SEQ ID NO: 90] | < 0.1 | 7.4 | < 0.1
24 | {Acetyl(2-(4-imidazolyl))}-[Aib]QGTFTSDYSKYLDEKRQKEFVNWLLAQC (bridge 15-19) [triple agonist of SEQ ID NO: 86] | 0.4 | 28.4 | 0.2
25 | {Acetyl(2-(4-imidazolyl))}-[Aib]QGTFTSDYSKYLDEKRQKEFVQWLLDTKC (bridge 15-19) [triple agonist of SEQ ID NO: 89] | 0.7 | 7.1 | < 0.1
